In patent publication US20110293526A1, “COMPOSITIONS AND METHODS TO MODULATE HAIR GROWTH” (University of Southern California, priority 2008, published 2011):

Key:
[1] = DMSO; cited from earlier work
[2] = in published reports; cited from earlier work
competent telogen skin = test: Protein administration experiment: human BMP4-soaked beads implanted into competent telogen skin ahead of an anagen-spreading wave; format: in vivo, mice; details: for propagation of the anagen-spreading (hair propagation) wave around the beads: beads soaked in human BMP4 1 mg per ml, implanted in competent telogen skin of adult mice, protein replenished every 24 h, twelve days later, versus control BSA/albumin beads
Experimental: Intracutaneous administration of exogenous protein was performed as follows. Affinity chromatography Affi-gel blue gel beads were obtained from Biorad. Beads were washed in 1×PBS, followed by drying. The beads were then re-suspended in 5 μl protein solution, either control (BSA 1 mg ml^−1) or experimental (human BMP4 1 mg per ml), at 4° C. for 30 min. Recombinant human BMP4 protein was obtained from R&D Systems. Reconstitution of the protein was performed in 4 mM HCl in 0.2% BSA as per the manufacturer's guidelines. Approximately 100 beads were introduced to the competent telogen skin of adult mice by means of a single puncture wound to the skin made by a 30 g syringe (insulin syringe). To replenish proteins, subsequent doses of 1.5 μl protein solution were microinjected to the site of the bead implantation every 24 h by means of a glass micro-needle until the tissue was harvested. After the anagen-spreading wave was noted to pass beyond the bead implantation sites (1 week in the case of FIGS. 2g, h), the skin was collected and inverted for photography. This allows the study of the anagen-wave-spreading dynamics around the control and human BMP4 beads.
Finally, it was tested whether a direct local delivery of BMP protein can convert competent telogen status to refractory in normal mice. Human-BMP4-soaked beads were implanted into competent telogen skin ahead of an anagen-spreading wave (see Methods in Botchkarev et al. (2001) FASEB J. 15:2205-14). […] Thus, the level of BMP activity can indeed explain the functional status (refractory versus competent) of a skin region.

Row | Molecule | solubility [1] | toxicity [2] | propagation of the anagen-spreading (hair propagation) wave around the beads (competent telogen skin) | propagation of the anagen-spreading (hair propagation) wave around the beads (competent telogen skin; listed as Human-BMP4) | propagation of the anagen-spreading (hair propagation) wave around the beads (competent telogen skin; listed as hBMP4) | status of treated skin and hair regeneration after intracutaneous delivery (competent telogen skin; delivered intracutaneously via single glass microneedle during competent telogen phase)
1 | c1cc(-c2cnn3cc(-c4ccc(OCCN5CCCCC5)cc4)cnc23)ccn1 [Dorsomorphin] | soluble in DMSO | low toxicity |  |  |  | 
2 | human BMP4: Recombinant human BMP4 protein obtained from R&D Systems (protein, UniProt P12644 293-408, looked up) Bone morphogenetic protein 4: SPKHHSQRARKKNKNCRRHSLYVDFSDVGWNDWIVAPPGYQAFYCHGDCPFPLADHLNSTNHAIVQTLVNSVNSSIPKACCVPTELSAISMLYLDEYDKVVLKNYQEMVVEGCGCR |  |  | prevented the propagation of the wave around the beads | caused hair propagation wave (solid arrow) to go around them, creating a new telogen domain | caused hair propagation wave (solid arrowed curve) to go around them, creating a new telogen domain | rendered treated skin refractory and prevented hair regeneration
